Assay results: patent US20250064988A1

Legend:
[1] = target: Glycoprotein IIb (GPIIb, also known as antigen CD41) (UniProt P08514); experiment: flow cytometry, percent of FDPDs stained; batch 2
[2] = target: Glycoprotein IIb (GPIIb, also known as antigen CD41) (UniProt P08514); experiment: flow cytometry, percent of FDPDs stained; batch 5
[3] = target: Glycoprotein IIb (GPIIb, also known as antigen CD41) (UniProt P08514); experiment: flow cytometry, percent of FDPDs stained; batch 6
[4] = target: Glycoprotein IIb (GPIIb, also known as antigen CD41) (UniProt P08514); experiment: flow cytometry, percent of FDPDs stained; batch 4
[5] = target: Glycoprotein IIb (GPIIb, also known as antigen CD41) (UniProt P08514); experiment: flow cytometry, percent of FDPDs stained; batch 7
[6] = target: Glycoprotein IIb (GPIIb, also known as antigen CD41) (UniProt P08514); experiment: flow cytometry, percent of FDPDs stained; mean of 7 batches
[7] = target: Glycoprotein IIb (GPIIb, also known as antigen CD41) (UniProt P08514); experiment: flow cytometry, percent of FDPDs stained; batch 1
[8] = target: Glycoprotein IIb (GPIIb, also known as antigen CD41) (UniProt P08514); experiment: flow cytometry, percent of FDPDs stained; batch 3
[9] = target: P-selectin (also called CD62P) (human) (UniProt P16109); experiment: flow cytometry, percent of CD41-positive FDPDs stained; batch 4
UniProt P16109, sequence (P16109 42-830): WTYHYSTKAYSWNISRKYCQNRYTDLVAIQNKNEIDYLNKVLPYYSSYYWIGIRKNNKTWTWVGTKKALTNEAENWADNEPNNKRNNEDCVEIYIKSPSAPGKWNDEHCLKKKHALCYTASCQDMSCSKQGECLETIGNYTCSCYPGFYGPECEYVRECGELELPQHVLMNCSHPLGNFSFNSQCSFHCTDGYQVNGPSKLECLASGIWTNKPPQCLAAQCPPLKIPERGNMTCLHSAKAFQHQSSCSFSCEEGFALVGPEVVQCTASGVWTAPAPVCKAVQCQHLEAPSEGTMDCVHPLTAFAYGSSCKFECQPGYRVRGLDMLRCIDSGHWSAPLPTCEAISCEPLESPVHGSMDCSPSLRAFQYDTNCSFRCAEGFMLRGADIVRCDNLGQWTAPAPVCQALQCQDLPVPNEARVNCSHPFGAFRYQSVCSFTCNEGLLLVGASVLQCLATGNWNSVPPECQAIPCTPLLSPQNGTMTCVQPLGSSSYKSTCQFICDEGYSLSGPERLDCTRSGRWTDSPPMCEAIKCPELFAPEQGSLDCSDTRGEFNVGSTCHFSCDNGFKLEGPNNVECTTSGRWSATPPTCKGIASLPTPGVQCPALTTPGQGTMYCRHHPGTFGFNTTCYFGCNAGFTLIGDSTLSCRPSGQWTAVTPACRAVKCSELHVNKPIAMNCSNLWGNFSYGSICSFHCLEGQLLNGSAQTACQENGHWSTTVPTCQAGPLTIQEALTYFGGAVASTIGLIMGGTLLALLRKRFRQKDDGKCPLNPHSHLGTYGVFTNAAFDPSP

[10] = target: P-selectin (also called CD62P) (human) (UniProt P16109); experiment: flow cytometry, percent of CD41-positive FDPDs stained; mean of 7 batches
[11] = target: P-selectin (also called CD62P) (human) (UniProt P16109); experiment: flow cytometry, percent of CD41-positive FDPDs stained; batch 1
[12] = target: P-selectin (also called CD62P) (human) (UniProt P16109); experiment: flow cytometry, percent of CD41-positive FDPDs stained; batch 2
[13] = target: P-selectin (also called CD62P) (human) (UniProt P16109); experiment: flow cytometry, percent of CD41-positive FDPDs stained; batch 3
[14] = target: P-selectin (also called CD62P) (human) (UniProt P16109); experiment: flow cytometry, percent of CD41-positive FDPDs stained; batch 5
[15] = target: P-selectin (also called CD62P) (human) (UniProt P16109); experiment: flow cytometry, percent of CD41-positive FDPDs stained; batch 7
[16] = target: P-selectin (also called CD62P) (human) (UniProt P16109); experiment: flow cytometry, percent of CD41-positive FDPDs stained; batch 6
[17] = target: P-selectin (also called CD62P) (human) (UniProt P16109); experiment: flow cytometry, human apheresis platelets after 20 µM TRAP-6
[18] = target: P-selectin (also called CD62P) (human) (UniProt P16109); experiment: flow cytometry, human apheresis platelets without TRAP-6
Thrombospondin (TSP1) [19] = target: Thrombospondin (TSP1) (UniProt P07996); experiment: flow cytometry, rehydrated baked FDPDs, average of lots
UniProt P07996, sequence (P07996 19-1170 limits assumed): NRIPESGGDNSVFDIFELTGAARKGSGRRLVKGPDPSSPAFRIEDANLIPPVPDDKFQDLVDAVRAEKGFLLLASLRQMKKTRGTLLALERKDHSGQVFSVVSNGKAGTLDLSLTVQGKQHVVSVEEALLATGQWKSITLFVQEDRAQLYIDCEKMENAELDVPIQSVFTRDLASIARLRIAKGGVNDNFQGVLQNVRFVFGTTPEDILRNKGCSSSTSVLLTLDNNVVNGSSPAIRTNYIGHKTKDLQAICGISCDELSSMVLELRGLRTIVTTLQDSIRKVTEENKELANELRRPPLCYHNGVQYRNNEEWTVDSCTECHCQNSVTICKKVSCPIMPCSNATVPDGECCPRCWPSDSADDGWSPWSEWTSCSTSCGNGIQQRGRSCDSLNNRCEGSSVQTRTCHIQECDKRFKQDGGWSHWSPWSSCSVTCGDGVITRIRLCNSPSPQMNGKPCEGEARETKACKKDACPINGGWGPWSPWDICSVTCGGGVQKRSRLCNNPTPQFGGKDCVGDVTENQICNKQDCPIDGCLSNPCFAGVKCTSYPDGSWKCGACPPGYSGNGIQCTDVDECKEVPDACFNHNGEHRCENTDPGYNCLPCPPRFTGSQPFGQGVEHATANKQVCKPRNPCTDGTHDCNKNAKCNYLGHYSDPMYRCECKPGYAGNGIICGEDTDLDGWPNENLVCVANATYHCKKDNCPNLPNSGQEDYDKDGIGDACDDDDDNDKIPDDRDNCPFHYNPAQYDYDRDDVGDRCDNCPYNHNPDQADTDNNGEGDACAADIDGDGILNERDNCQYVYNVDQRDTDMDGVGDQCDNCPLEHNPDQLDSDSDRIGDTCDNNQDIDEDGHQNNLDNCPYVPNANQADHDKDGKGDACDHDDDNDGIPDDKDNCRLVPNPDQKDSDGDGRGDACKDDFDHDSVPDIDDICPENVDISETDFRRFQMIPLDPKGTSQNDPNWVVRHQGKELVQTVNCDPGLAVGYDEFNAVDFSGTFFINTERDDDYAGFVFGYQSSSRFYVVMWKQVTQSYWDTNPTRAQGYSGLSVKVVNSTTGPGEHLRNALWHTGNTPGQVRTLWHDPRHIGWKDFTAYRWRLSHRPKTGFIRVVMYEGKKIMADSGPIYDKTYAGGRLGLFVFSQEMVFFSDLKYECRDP

Thrombospondin (TSP1) [20] = target: Thrombospondin (TSP1) (UniProt P07996); experiment: flow cytometry, resting fresh washed platelets
Thrombospondin (TSP1) [21] = target: Thrombospondin (TSP1) (UniProt P07996); experiment: flow cytometry, fresh washed platelets activated with collagen and thrombin
[22] = target: Von Willebrand factor (vWF) (UniProt P04275); experiment: flow cytometry, rehydrated baked FDPDs, average of lots
UniProt P04275, sequence (P04275 764-2813 limits assumed): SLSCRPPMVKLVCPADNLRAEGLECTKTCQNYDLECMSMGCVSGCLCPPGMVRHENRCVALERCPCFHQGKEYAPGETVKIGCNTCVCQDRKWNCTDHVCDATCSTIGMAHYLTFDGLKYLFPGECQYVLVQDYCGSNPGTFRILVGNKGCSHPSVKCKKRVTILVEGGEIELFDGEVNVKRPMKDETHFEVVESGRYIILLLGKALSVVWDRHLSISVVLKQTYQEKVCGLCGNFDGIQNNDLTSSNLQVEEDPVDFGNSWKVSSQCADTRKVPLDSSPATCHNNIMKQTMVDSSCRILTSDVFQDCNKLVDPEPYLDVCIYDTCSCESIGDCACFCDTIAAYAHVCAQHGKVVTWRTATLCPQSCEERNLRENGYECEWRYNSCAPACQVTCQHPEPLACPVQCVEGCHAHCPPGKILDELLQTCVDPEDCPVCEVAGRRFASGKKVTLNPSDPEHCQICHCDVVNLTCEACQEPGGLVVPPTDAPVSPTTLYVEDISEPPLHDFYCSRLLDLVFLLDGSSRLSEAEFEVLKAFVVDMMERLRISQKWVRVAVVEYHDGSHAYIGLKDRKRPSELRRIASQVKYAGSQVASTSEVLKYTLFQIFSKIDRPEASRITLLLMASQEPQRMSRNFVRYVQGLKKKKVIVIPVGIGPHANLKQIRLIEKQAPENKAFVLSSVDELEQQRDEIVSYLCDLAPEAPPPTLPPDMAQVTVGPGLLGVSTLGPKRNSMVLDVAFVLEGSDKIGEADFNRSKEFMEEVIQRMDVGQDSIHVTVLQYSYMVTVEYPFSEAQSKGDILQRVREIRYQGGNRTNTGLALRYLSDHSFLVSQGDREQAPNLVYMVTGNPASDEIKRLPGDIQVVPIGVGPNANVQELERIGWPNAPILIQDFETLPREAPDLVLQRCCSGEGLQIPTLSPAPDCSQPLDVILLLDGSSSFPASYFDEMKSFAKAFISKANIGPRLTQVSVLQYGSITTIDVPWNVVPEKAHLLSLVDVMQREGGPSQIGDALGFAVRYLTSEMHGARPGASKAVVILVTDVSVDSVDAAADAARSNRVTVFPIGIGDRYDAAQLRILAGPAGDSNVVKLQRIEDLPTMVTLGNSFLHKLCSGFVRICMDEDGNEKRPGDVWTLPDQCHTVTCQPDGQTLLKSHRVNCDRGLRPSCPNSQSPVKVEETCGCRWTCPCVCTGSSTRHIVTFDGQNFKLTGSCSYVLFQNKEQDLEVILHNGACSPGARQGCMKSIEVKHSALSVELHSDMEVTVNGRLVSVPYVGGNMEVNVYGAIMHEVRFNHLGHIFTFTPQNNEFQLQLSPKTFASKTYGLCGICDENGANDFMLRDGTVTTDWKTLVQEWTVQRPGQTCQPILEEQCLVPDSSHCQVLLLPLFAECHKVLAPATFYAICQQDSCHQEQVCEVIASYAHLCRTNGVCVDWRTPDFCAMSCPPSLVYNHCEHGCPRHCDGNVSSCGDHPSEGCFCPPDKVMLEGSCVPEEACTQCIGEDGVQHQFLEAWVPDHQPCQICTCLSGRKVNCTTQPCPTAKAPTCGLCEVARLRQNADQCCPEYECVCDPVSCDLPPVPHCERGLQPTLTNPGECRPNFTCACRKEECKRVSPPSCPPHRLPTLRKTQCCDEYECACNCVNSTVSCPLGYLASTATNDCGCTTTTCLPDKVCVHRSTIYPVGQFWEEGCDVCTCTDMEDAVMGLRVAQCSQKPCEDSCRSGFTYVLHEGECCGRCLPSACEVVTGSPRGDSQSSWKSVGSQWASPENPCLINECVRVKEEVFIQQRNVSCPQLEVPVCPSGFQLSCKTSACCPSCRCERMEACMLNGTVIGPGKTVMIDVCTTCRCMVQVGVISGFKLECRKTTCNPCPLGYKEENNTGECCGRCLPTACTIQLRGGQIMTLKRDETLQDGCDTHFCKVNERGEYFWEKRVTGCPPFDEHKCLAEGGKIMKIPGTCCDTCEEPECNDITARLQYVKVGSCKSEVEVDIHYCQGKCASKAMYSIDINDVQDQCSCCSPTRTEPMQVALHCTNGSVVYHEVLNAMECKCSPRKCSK

[23] = target: Von Willebrand factor (vWF) (UniProt P04275); experiment: flow cytometry, resting fresh washed platelets
[24] = target: Von Willebrand factor (vWF) (UniProt P04275); experiment: flow cytometry, fresh washed platelets activated with collagen and thrombin

UniProt P08514, sequence (P08514 32-1039 limits assumed): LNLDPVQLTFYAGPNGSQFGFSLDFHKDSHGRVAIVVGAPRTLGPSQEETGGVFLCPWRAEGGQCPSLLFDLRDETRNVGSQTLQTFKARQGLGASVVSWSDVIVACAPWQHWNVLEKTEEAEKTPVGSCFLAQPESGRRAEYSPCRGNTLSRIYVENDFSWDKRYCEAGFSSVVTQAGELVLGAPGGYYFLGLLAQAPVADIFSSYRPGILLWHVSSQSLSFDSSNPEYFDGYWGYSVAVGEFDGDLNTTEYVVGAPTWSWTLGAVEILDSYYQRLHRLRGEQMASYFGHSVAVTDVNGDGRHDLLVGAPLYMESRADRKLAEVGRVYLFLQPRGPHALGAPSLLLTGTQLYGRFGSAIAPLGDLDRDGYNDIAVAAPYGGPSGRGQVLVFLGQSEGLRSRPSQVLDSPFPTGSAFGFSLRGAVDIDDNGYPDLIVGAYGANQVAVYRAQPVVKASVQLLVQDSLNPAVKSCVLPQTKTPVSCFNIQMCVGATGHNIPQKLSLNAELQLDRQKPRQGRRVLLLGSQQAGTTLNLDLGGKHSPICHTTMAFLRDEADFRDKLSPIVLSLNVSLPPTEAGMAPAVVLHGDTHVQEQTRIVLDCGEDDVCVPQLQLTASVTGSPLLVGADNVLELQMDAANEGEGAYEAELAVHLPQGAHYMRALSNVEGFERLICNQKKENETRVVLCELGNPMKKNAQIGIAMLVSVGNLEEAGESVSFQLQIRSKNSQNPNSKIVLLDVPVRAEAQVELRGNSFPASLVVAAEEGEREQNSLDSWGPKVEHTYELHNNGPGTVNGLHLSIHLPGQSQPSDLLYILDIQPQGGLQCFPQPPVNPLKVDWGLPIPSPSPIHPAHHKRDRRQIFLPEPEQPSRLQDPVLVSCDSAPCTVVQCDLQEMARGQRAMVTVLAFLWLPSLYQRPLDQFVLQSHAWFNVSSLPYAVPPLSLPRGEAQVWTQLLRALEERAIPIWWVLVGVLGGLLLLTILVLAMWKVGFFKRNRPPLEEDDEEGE

Substance: anti-CD41 antibody (Beckman Coulter part #IM1416U)
- CD41 Positivity (%) [1]: 79.4%
- CD41 Positivity (%) [2]: 81.5%
- CD41 Positivity (%) [3]: 84%
- CD41 Positivity (%) [4]: 78.2%
- CD41 Positivity (%) [5]: 78.5%
- CD41 Positivity (%) [6]: 81.3%
- CD41 Positivity (%) [7]: 81.5%
- CD41 Positivity (%) [8]: 85.7%

Substance: anti-CD62P antibody (BD Biosciences Cat. No. 550888)
- CD62 Positivity (%) [9]: 92.4%
- CD62 Positivity (%) [10]: 91.4%
- CD62 Positivity (%) [11]: 94.2%
- CD62 Positivity (%) [12]: 93.1%
- CD62 Positivity (%) [13]: 89.8%
- CD62 Positivity (%) [14]: 92.5%
- CD62 Positivity (%) [15]: 90.7%
- CD62 Positivity (%) [16]: 87.3%

Substance: anti-CD62P-PE antibody (BD Pharmingen Cat #550561 Lot #6322976)
- MFI [17]: 127000 MFI
- MFI [18]: 2350 MFI

Substance: anti-Thrombospondin-1 (TSP-1) antibody (Santa Cruz Biotech Cat #sc-59887 AF594)
- MFI (Thrombospondin (TSP1) [19]): 91400 MFI
- MFI (Thrombospondin (TSP1) [20]): 1220 MFI
- MFI (Thrombospondin (TSP1) [21]): 3310 MFI

Substance: anti-Von Willebrand Factor antibody (Novus Biologicals Cat #NBP2-54379PE)
- MFI [22]: 14000 MFI
- MFI [23]: 4770 MFI
- MFI [24]: 19700 MFI
